Experimental data as given in patent US20260201008A1, “SECRETIN-DERIVED GLP1R SELECTIVE AGONISTS” (GUBRA A/S, priority 2023, published 2026).
Square brackets hold non-standard residues; d marks the D form. Ends that are not written are not given here. Aib = CC(C)(N)C(=O)O

B1: SEQ ID NO: 186 (peptide)
peptide: H[Aib]EGTFTSDWSRLLEGAALQRFIQWLV-NH2
modifications: N-terminus assumed
SMILES: CC[C@H](C)[C@H](NC(=O)[C@H](Cc1ccccc1)NC(=O)[C@H](CCCNC(=N)N)NC(=O)[C@H](CCC(N)=O)NC(=O)[C@H](CC(C)C)NC(=O)[C@H](C)NC(=O)[C@H](C)NC(=O)CNC(=O)[C@H](CCC(=O)O)NC(=O)[C@H](CC(C)C)NC(=O)[C@H](CC(C)C)NC(=O)[C@H](CCCNC(=N)N)NC(=O)[C@H](CO)NC(=O)[C@H](Cc1c[nH]c2ccccc12)NC(=O)[C@H](CC(=O)O)NC(=O)[C@H](CO)NC(=O)[C@@H](NC(=O)[C@H](Cc1ccccc1)NC(=O)[C@@H](NC(=O)CNC(=O)[C@H](CCC(=O)O)NC(=O)C(C)(C)NC(=O)[C@@H](N)Cc1c[nH]cn1)[C@@H](C)O)[C@@H](C)O)C(=O)N[C@@H](CCC(N)=O)C(=O)N[C@@H](Cc1c[nH]c2ccccc12)C(=O)N[C@@H](CC(C)C)C(=O)N[C@H](C(N)=O)C(C)C
B2: SEQ ID NO: 194 (peptide)
peptide: H[Aib]EGTFTSDYSRLLEGAALQRFIQWLV-NH2
modifications: N-terminus assumed
SMILES: CC[C@H](C)[C@H](NC(=O)[C@H](Cc1ccccc1)NC(=O)[C@H](CCCNC(=N)N)NC(=O)[C@H](CCC(N)=O)NC(=O)[C@H](CC(C)C)NC(=O)[C@H](C)NC(=O)[C@H](C)NC(=O)CNC(=O)[C@H](CCC(=O)O)NC(=O)[C@H](CC(C)C)NC(=O)[C@H](CC(C)C)NC(=O)[C@H](CCCNC(=N)N)NC(=O)[C@H](CO)NC(=O)[C@H](Cc1ccc(O)cc1)NC(=O)[C@H](CC(=O)O)NC(=O)[C@H](CO)NC(=O)[C@@H](NC(=O)[C@H](Cc1ccccc1)NC(=O)[C@@H](NC(=O)CNC(=O)[C@H](CCC(=O)O)NC(=O)C(C)(C)NC(=O)[C@@H](N)Cc1c[nH]cn1)[C@@H](C)O)[C@@H](C)O)C(=O)N[C@@H](CCC(N)=O)C(=O)N[C@@H](Cc1c[nH]c2ccccc12)C(=O)N[C@@H](CC(C)C)C(=O)N[C@H](C(N)=O)C(C)C

How the values were obtained:
[1] = Turbidity of crude library peptides (absorbance at 600 nm); assay type: physicochemical; settings: Physical stability of peptides
Description: (§1) Peptides were dissolved in buffers (50 mM sodium acetate at pH 4.0, or 50 mM sodium phosphate at pH 7.0) to 267 μM and incubated for 1-2 hours at room temperature. The samples were then divided into two replicates of 80 μl in a black 384 well plate (μ-clear, Greiner Bio-One) and mixed with Thioflavin T (ThT) to a final concentration of 4 μM. The plate was centrifuged for 2 min at 2000 rpm to remove air bubbles, sealed, and placed in a plate reader (CLARIOstar, BMG). Firstly, turbidity of the samples was measured as the absorbance at 600 nm. Secondly, the plate reader temperature was set to 40° C. and the fluorescence was measured every 10 min for 72 hours by exciting the ThT at 450 nm and measuring the emission at 480 nm. Samples were stressed by shaking the plate at 700 rpm (linear) for five minutes before every measurement, and fibril formation was determined as the average emission for each sample.

[2] = Fibril formation of crude library peptides (Thioflavin T); assay type: physicochemical; design: key: average ThT fluorescence emission at 480 nm (ex 450 nm), raw units; settings: Physical stability of peptides
Description: as §1

[3] = target: human secretin receptor (hSCTR) (human, UniProt P47872 23-440); experiment: cell-based or functional assay
human secretin receptor (hSCTR), sequence (P47872 23-440): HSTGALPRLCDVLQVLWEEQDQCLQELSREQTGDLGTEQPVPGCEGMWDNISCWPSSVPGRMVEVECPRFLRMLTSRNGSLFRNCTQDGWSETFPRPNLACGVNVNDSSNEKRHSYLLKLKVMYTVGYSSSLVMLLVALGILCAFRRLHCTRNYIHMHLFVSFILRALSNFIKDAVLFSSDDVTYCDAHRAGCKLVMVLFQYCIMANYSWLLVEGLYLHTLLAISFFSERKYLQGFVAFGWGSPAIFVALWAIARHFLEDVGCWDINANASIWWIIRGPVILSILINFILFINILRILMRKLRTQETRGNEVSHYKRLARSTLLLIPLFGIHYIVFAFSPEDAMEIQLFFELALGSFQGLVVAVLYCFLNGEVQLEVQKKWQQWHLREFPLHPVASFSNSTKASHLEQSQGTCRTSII

Molecule	Turbidity (pH 7) [1]	Fibril formation [2]	pEC50 hSCTR [3]
216 (GUB06-046) (H[Aib]EGTFTSDLSRLLEGAALQRFIQWLV-NH2; N-terminus assumed; SMILES CC[C@H](C)[C@H](NC(=O)[C@H](Cc1ccccc1)NC(=O)[C@H](CCCNC(=N)N)NC(=O)[C@H](CCC(N)=O)NC(=O)[C@H](CC(C)C)NC(=O)[C@H](C)NC(=O)[C@H](C)NC(=O)CNC(=O)[C@H](CCC(=O)O)NC(=O)[C@H](CC(C)C)NC(=O)[C@H](CC(C)C)NC(=O)[C@H](CCCNC(=N)N)NC(=O)[C@H](CO)NC(=O)[C@H](CC(C)C)NC(=O)[C@H](CC(=O)O)NC(=O)[C@H](CO)NC(=O)[C@@H](NC(=O)[C@H](Cc1ccccc1)NC(=O)[C@@H](NC(=O)CNC(=O)[C@H](CCC(=O)O)NC(=O)C(C)(C)NC(=O)[C@@H](N)Cc1c[nH]cn1)[C@@H](C)O)[C@@H](C)O)C(=O)N[C@@H](CCC(N)=O)C(=O)N[C@@H](Cc1c[nH]c2ccccc12)C(=O)N[C@@H](CC(C)C)C(=O)N[C@H](C(N)=O)C(C)C)	0.48	11040	–
B1	–	–	8.2 -log M
B2	–	–	8.8 -log M
